Data published in US20020197661.

What was measured:
Ac-PRNR-ACC [1] = experiment: single substrate kinetics, fluorogenic ACC release, Skin (β-I) Tryptase
Ac-PRTK-ACC [2] = experiment: as above
[3] = test system: Acetyl-Prolyl-Arginyl-Asparaginyl-Lysyl-aminoacetamide coumarin (Ac-PRNK-ACC); experiment: as above
Ac-PANK-ACC [4] = experiment: as above
Ac-PRNR-ACC [5] = test system: Ac-PRNR-ACC
Ac-PRTK-ACC [6] = test system: Ac-PRTK-ACC
[7] = test system: Acetyl-Prolyl-Arginyl-Asparaginyl-Lysyl-aminoacetamide coumarin (Ac-PRNK-ACC)
Ac-PANK-ACC [8] = test system: Ac-PANK-ACC
Ac-PRNR-ACC [9] = experiment: single substrate kinetics, fluorogenic ACC release, Lung (β-II) Tryptase
Ac-PRTK-ACC [10] = experiment: as above
[11] = test system: Acetyl-Prolyl-Arginyl-Asparaginyl-Lysyl-aminoacetamide coumarin (Ac-PRNK-ACC); experiment: as above
Ac-PANK-ACC [12] = experiment: as above

Chain of recombinant human βI-tryptase (chain, as listed by the source): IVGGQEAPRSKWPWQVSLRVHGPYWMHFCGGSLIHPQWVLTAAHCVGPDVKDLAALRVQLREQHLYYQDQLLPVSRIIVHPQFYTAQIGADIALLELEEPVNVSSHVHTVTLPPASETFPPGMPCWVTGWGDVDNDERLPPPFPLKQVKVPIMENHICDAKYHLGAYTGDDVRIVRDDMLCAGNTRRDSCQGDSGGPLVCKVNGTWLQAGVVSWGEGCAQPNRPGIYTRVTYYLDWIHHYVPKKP

Substance: recombinant human βI-tryptase
- Km (Ac-PRNR-ACC [1]): 18.6 µM
- Km (Ac-PRTK-ACC [2]): 23.4 µM
- Km [3]: 14.5 µM
- Km (Ac-PANK-ACC [4]): 133 µM
- kcat (Ac-PRNR-ACC [5]): 20.9 s⁻¹
- kcat/km (s^-1M^-1) (Ac-PRNR-ACC [5]): 1.12e+06 s^-1M^-1
- kcat (Ac-PRTK-ACC [6]): 18.3 s⁻¹
- kcat/km (s^-1M^-1) (Ac-PRTK-ACC [6]): 780000 s^-1M^-1
- cleavage of the fluorogenic substrate (fluorescence, excitation 355 nm, emission 460 nm) [7]: Ac-PRNK-ACC (SEQ. ID. NO: 12) is a specific substrate for tryptase in relation to other blood borne serine proteases
- kcat [7]: 17.8 s⁻¹
- kcat/km (s^-1M^-1) [7]: 1.23e+06 s^-1M^-1
- preference over Ac-PRTK-ACC (kcat/Km) [7]: A minimal preference, approximately 2-fold, for P2-asparagine over P2-threonine was seen for both enzymes
- kcat (Ac-PANK-ACC [8]): 19.1 s⁻¹
- kcat/km (s^-1M^-1) (Ac-PANK-ACC [8]): 140000 s^-1M^-1

Substance: Human alpha-thrombin (Haematologic Technologies, Inc.)
- cleavage of the fluorogenic substrate (fluorescence, excitation 355 nm, emission 460 nm) [7]: Ac-PRNK-ACC (SEQ. ID. NO: 12) is a specific substrate for tryptase in relation to other blood borne serine proteases

Substance: recombinant human βII-tryptase
- activity relative to Ac-PRNK-ACC (kcat/Km) (Ac-PRNR-ACC [5]): about 70-90% of the activity of Ac-PRNK-ACC
- kcat (Ac-PRNR-ACC [5]): 21.8 s⁻¹
- kcat/km (s^-1M^-1) (Ac-PRNR-ACC [5]): 1.31e+06 s^-1M^-1
- kcat (Ac-PRTK-ACC [6]): 18.7 s⁻¹
- kcat/km (s^-1M^-1) (Ac-PRTK-ACC [6]): 1.27e+06 s^-1M^-1
- kcat [7]: 16.8 s⁻¹
- kcat/km (s^-1M^-1) [7]: 1.89e+06 s^-1M^-1
- preference over Ac-PANK-ACC (kcat/Km) [7]: an approximately 10-fold preference for Ac-PRNK-ACC (SEQ. ID. NO: 12) over Ac-PANK-ACC
- preference over Ac-PRTK-ACC (kcat/Km) [7]: A minimal preference, approximately 2-fold, for P2-asparagine over P2-threonine was seen for both enzymes
- kcat (Ac-PANK-ACC [8]): 20.3 s⁻¹
- kcat/km (s^-1M^-1) (Ac-PANK-ACC [8]): 180000 s^-1M^-1
- Km (Ac-PRNR-ACC [9]): 16.5 µM
- Km (Ac-PRTK-ACC [10]): 14.7 µM
- Km [11]: 8.9 µM
- Km (Ac-PANK-ACC [12]): 110 µM
